Test results reported in US7387779B2, “Anti-angiogenic proteins and fragments and methods of use thereof” (Beth Israel Deaconess Medical Center, priority 1998, dated 2008).

What was measured:
PC-3 tumors = assay: PC-3 xenograft in athymic nude NCRNU mice (Example 46); assay type: in vivo
Protocol: Tumstatin-44-131 was also tested for its ability to suppress tumor growth. Male athymic nude NCRNU mice, of 5-6 weeks of age and about 25 g, were implanted with […] approximately 2×10^6 PC-3 (prostate cancer carcinoma) cells into the dorsal subcutis. […] The tumors were allowed to grow to about 50 mm^3, and animals were then pair-matched into groups of 6 mice. Initial doses of protein or vehicle (PBS, control) were given on the day of pair-matching (Day 1). Tumstatin-44-131, Tum-5-125-C-A, or human endostatin in sterile PBS was intraperitoneally injected daily b.i.d. at doses ranging from 1 to 20 mg/kg for 20 days. Control animals received injection of PBS vehicle. In one treatment, continuous subcutaneous delivery of Tumstatin-44-131 was done using surgically implanted Alzet mini-pumps. The mice were weighed twice weekly, and tumor measurements were taken, starting on Day 1. Estimated mean tumor volumes were calculated, and at Day 21, the mice were weighed, sacrificed, and their tumors excised and examined by light microscopy and CD31 immunostaining. The mean treated tumor weight was divided by the mean control tumor weight was subtracted from one, and expressed as a percentage to give the tumor growth inhibition for each group.

MLEC β3+/+ = assay: Protein synthesis and cap-dependent translation in wild-type mouse lung endothelial cells; assay type: cell-based; conditions: 4.5 μM; rapamycin 100 ng/ml
From the text: Therefore, to evaluate the effect of tumstatin peptides on cap-dependent and independent translation, endothelial cells were isolated from lungs of 12-week-old mice that were deficient in the expression of αvβ3 integrin (i.e., 3 integrin-deficient mice), and also their wild-type counterparts (Hodivala-Dilke, K. M. et al., 1999, J. Clin. Invest. 103:229-38). Briefly, ICAM-2 expressing MLEC were enriched using rat anti-mouse ICAM-2 (# 01800D, PharMingen, San Diego, Calif., USA) conjugated to magnetic beads (Dynabeads M-450, Dynal, Oslo, Norway). MLEC were maintained in 40% Ham's F-12,40% DME-Low Glucose, 20% FBS supplemented with heparin, endothelial mitogen (Biomedical Technologies, Inc., Cambridge, Mass., USA), glutamine and penicillin/streptomycin. Wild-type and β3-integrin-deficient mouse embryonic fibroblasts were prepared (Hodivala-Dilke, K. M. et al., 1999, J. Clin. Invest. 103:229-38). MEFs were maintained in DMEM containing 10% FBS. MLEC were characterized for homogeneity by morphological observations and by immunofluorescence staining for endothelial-specific markers. Cells between passage 3 and 6 were used for the experiments.

[1] = tested on: 786-O (renal carcinoma) cells; assay: Proliferation of control cells, 3H-thymidine incorporation; assay type: cell-based, human; conditions: non-endothelial control; Canstatin up to 40 mg/ml, Tumstatin up to 20 mg/ml
Protocol: (§1) C-PAE cells were grown to confluence in DMEM with 10% fetal calf serum (FCS) and kept contact inhibited for 48 hours. Control cells were 786-O (renal carcinoma) cells, PC-3 cells, HPEC cells, and A-498 (renal carcinoma) cells. Cells were harvested with trypsinization (Life Technologies/Gibco BRL, Gaithersburg, Md., USA) at 37° C. for five minutes. […] The cells were incubated for 24 hours at 37° C. with 5% CO2 and 95% humidity. Medium was removed and replaced with DMEM containing 0.5% FCS and 3 ng/ml bFGF (R&D Systems, Minneapolis, Minn., USA). Unstimulated controls received no bFGF. […] All wells received 1 μCurie of ^3H-thymidine at the time of treatment. After 24 hours, medium was removed and the wells were washed with PBS. Cells were extracted with 1N NaOH and added to a scintillation vial containing 4 ml of ScintiVerse II (Fisher Scientific, Pittsburgh, Pa., USA) solution. Thymidine incorporation was measured using a scintillation counter. The results are shown in FIGS. 3A and 3B, which are a pair of graphs showing incorporation of ^3H-thymidine into C-PAE cells treated with varying amounts of Arresten (FIG. 3A) or endostatin (FIG. 3B). Arresten appeared to inhibit thymidine incorporation in C-PAE as well as did endostatin. Behavior of control cells treated with Arresten and endostatin is also shown in FIG. 4A, 4B, 4C, and 4D, with Arresten having little effect on 786-O cells (FIG. 4A), PC-3 cells (FIG. 4B), or HPEC cells (FIG. 4C). Endostatin had little effect on A-498 cells (FIG. 4D). All groups in FIGS. 3 and 4 represent triplicate samples. […] (C-PAE) cells were grown to confluence in DMEM with 10% fetal calf serum (FCS) and kept contact inhibited for 48 hours. Cells were harvested by trypsinization (Life Technologies/Gibco BRL, Gaithersberg, Md., USA) at 37° C. for 5 minutes. […] The cells were incubated for 24 hours at 37° C. C. with 5% CO2 and 95% humidity. Medium was removed, and replaced with DMEM containing 0.5% FCS (unstimulated) or 10% FCS (stimulated and treated cells). 786-O, PC-3 and HEK 293 cells served as controls and were also grown to confluency, trypsinized and plated in the same manner. Cells were treated with concentrations of Canstatin or endostatin ranging from 0.025 to 40 mg/ml in triplicate. In thymidine incorporation experiments, all wells received […] of ^3H-thymidine at the time of treatment. After 24 hours, medium was removed and the wells were washed 3 times with PBS. Radioactivity was extracted with 1N NaOH and added to a scintillation vial containing 4 ml of ScintiVerse II (Fisher Scientific, Pittsburgh, Pa., USA) solution. Thymidine incorporation was measured using a scintillation counter. […]

PC-3 cells = assay: as above; assay type: cell-based, human; conditions: non-endothelial control; Canstatin up to 40 mg/ml, Tumstatin up to 20 mg/ml
Protocol: as §1

| Molecule | tumor growth inhibition (PC-3 tumors; 20 mg/kg b.i.d., bolus injection) | protein synthesis / cap-dependent translation in control (β3+/+) endothelial cells (MLEC β3+/+) | effect on proliferation [1] | effect on proliferation (PC-3 cells) | tumor growth inhibition (PC-3 tumors; 1 mg/kg i.p. b.i.d., 20 days) | tumor growth inhibition (PC-3 tumors; continuous delivery via Alzet mini-pump, 1 mg/kg over 24 hours) |
| --- | --- | --- | --- | --- | --- | --- |
| endostatin: tumor associated angiogenesis inhibitor used as comparator (protein, UniProt P39060 1572-1754, looked up, Endostatin) Endostatin: HSHRDFQPVLHLVALNSPLSGGMRGIRGADFQCFQQARAVGLAGTFRAFLSSRLQDLYSIVRRADRAAVPIVNLKDELLFPSWEALFSGSEGPLKPGARIFSFDGKDVLRHPTWPQKSVWHGSDPNGRRLTESYCETWRTEAPSATGQASSLLGGRLLGQSAASCHHAYIVLCIENSFMTASK | no significant tumor growth inhibition | did not exhibit this property | – | – | – | – |
| Canstatin: NC1 domain of the α2 chain of Type IV collagen (SEQ ID NO:6) (protein, listed as Homo sapiens) VSIGYLLVKHSQTDQEPMCPVGMNKLWSGYSLLYFEGQEKAHNQDLGLAGSCLARFSTMPFLYCNPGDVCYYASRNDKSYWLSTTAPLPMMPVAEDEIKPYISRCSVCEAPAIAIAVHSQDVSIPHCPAGWRSLWIGYSFLMHTAAGDEGGGQSLVSPGSCLEDFRATPFIECNGGRGTCHYYANKYSFWLTTIPEQSFQGSPSADTLKAGLIRTHISRCQVCMKNL | – | – | No significant effect | No significant effect | – | – |
| Tumstatin-44-131: residues 44 to 131 of full-length Tumstatin (SEQ ID NO:33) (protein, Tumstatin-45-132 (amino acids 45-132 of SEQ ID NO10)) FSFLFVQGNQRAHGQDLGTLGSCLQRFTTMPFLFCNVNDVCNFASRNDYSYWLSTPALMPMNMAPITGRALEPYISRCTVCEGPAIAI | – | – | – | – | 74.1% | 70.1% |
| Tumstatin: NC1 domain of the α3 chain of type IV collagen, residues 1-244 (SEQ ID NO:10) (protein, listed as Homo sapiens) GLKGKRGDSGSPATWTTRGFVFTRHSQTTAIPSCPEGTVPLYSGFSFLFVQGNQRAHGQDLGTLGSCLQRFTTMPFLFCNVNDVCNFASRNDYSYWLSTPALMPMNMAPITGRALEPYISRCTVCEGPAIAIAVHSQTTDIPPCPHGWISLWKGFSFIMFTSAGSEGTGQALASPGSCLEEFRASPFLECHGRGTCNYYSNSYSFWLASLNPERMFRKPIPSTVKAGELEKIISRCQVCMKKRH | – | inhibited protein synthesis | no significant anti-proliferative effect | no significant anti-proliferative effect | – | – |
